Experiment: yeast display, Sf9 membrane polyspecificity reagent, FACS + sequencing; frameworks hold sequencing errors
Method in brief: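 Polyreactivity labels are assigned by the sorting gate from which each nanobody was recovered. The gates were low and high (top ~1%), set on anti-HA fluorescence for expression and streptavidin fluorescence for reagent binding. Before sorting, galactose-induced (36–48 hours) yeast display cells were stained for 1 hour at 4 °C with 10% biotinylated, detergent-solubilized Sf9 membrane reagent.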

Sequence	polyreactivity (PSR sort gate)
QVQLVESGGGLVQAGGSLRLSCAASGSTFLDNAMGWYRQAPGKERELVAAISSDGSTYYANSVKGRFTISRDNAKNTVYIQMNSLKPEDTAVYYCAAEYRYYGFWYDYWGQGTQVTVSS	high polyreactivity
QVQLVESGGGLVQAGGSLRLSCAASGSTLGRNAMVWYRQAPGKERELVAAITTSGGSTYYADSVKGRFTISRDNAKNTVYLQMNSLKPEDTAVYYCAARTGYRNYGYWGQGSQVTVSS	high polyreactivity
QVQLLESGGGLVLAGGRIRLSCAASGRTYRYTMGWNRQSPGKERELVAAISRSGGSTYYADSVKGRFTISRDNAKNSFYLQMNSLKPEDTAVYYCAKVIYRYNETYDYWGQGTQVTVSS	high polyreactivity
QVQLVESGGGLVQAGGSLRLSCAAYGNIFDGNAMGWYRQAPGKERELVAAITGRGGGTYYADSVKGRFTISRDNAKNTVYLLMNSLKPEDTAVYYCNKYYYRGGMDYWGQGTQVNVSS	high polyreactivity
QVQLVESGGGLDQAGGSLRLSCAASGSTFVGYAMGWYRQAPGKERELVAAISYSGGRTYYADSVKGRFTISRDNAKNTVYLQMNSLKPEDTAVYYCAALVGGSGWWGRDYWGQGTQVTVSS	high polyreactivity
QVHLQGSGGGLVQAGGSLRLSCAASGYIFQNDPMGWNLQAPGKERELVAGIDNGTSTNYADSVNGRFTISRDNAKNTVYLQMNSLKPEDTAVYYCSAAGQADDTLGYWGQGTEVTVSS	low polyreactivity
QVQLVESGGGLVQAGGSLRLSCAASGGTFWSYAMGLYRQAPGKEREFVAAITTSAGRTNFADSVKGRFTISRDNAKNTFYLQMNSLKPEDTAVYYCAARSAYPGLGYGFDYWGQGTQVTVSS	low polyreactivity
QVQLVESGGGLVQARGILRLSCAASGNIFGRYAMGWSRQAPGKERELVAAITRSCGRTYYADSVKGRFTISRHHAKNTVYLQRNSLKPEDTAGYYCAAVGGRDVYPVVDRDYWGQGTQLTVSS	low polyreactivity
QVQLVESGGGLVKAGGSLRLSCAASGRIDSTYAMGWSRQAPGKERDLVAAINKIGGSTYYADSVKGRFTISRDNEKNTVYLQMNSLKPEDTAVYYCAADAPYYPVRRYYYWGQGTQVTVSA	low polyreactivity
QVQRLESGGGLVKAGGSLRLSCSASGIILPYYVMGWYRQAPGKEREFVADITWSGGSTYYADSVKGRFTISRDNAKNTVYLQMNSLKPEDTAVYYCAAEGPWYYFFDMDYWGQGTQVTVSS	high polyreactivity
QDQLVESGGGLVQAGGRLRLSCAASGSIFCGNAMGWYRQAPGKERDLVAAITYRSGRTYYADSVKGRFTISRDNAKNTVYFQMNSLKPEDTAVYDCAAEFGGASRYTYNYWGQGTQVTVSS	low polyreactivity
QVQIVESGGGLVQAGGSLRLSCAASGSIFQGNPMGWYRQAPWKEREFVAAISWSGDSTYYADSVKGRFTISRDNAKYSVYLQMNSLKTEDTAVYYCGADPWDIYRRLSPGDHDYWGQCTQVTVSS	low polyreactivity
QVQLVESGGGLVQAGGSLRLSCAASGSILYRNAMGWYRQAPGKERELVAGITRRGGSTYYADSVKGRFTISRDNAKNTVYLQMISLKPEDTAVYYCNVQRARRQRQYGYWGQGTQVTVSS	low polyreactivity
QVQLVESRGGLVQAGGSLRLSCAASGLIFGFNTMGWYRQAPGKERELVAAITSGGGSTYYADSVKGRFTISRDNAKNTVYLQMNSLKPEDTAVYYCNAGGGRWRARQWHDYWGQGTQVTVSS	low polyreactivity
QVQLVESGGGLVQAGGSLRLSCAASGSTFSVYAMGWYRQAPGKERELVATISWGGGITYYADSVKGRFTISRDNAKNTVYLQMNSLKPEDTAVYYCAAYARYPRYYYWGQGTQVTVSS	high polyreactivity
QDQLVESGGGLVQAGGSLRLSCAASGLNFVRYAMGWYRQAPGKERELVATITWSGGTYYADSVKGRFTISRDNAKNTVYLQMNSLKPEDTAVSYCAADTPTPGLFYWFYPHRGYWGQGTQVTVSS	low polyreactivity
QVQLVESGGGLGQAGGSLRLSCAASGSIFAVNAMGWYRPAPGKERELVAGINSSGGSTHYADSVKGRFTISRDNAKNTVYFQMNSLKPEDTAVYYCAADWLRPAYYAVASLVKSDYWGQGTQVTVSS	low polyreactivity
QVQLVESGGGLVQAGGSLRLSCDASGFTFYYYTMGWYRQAPGKERELVAAITWRGGSTNYADSVKGRFTISRDNAKNTVYVQMNSLKPEDTAVYYCAAVTYWFWPGMDYWGQGTQVTVSS	low polyreactivity
QVQLVESGGGFVQAGGSHRLSCASSGRTFVLYTMGLYRQAPGKERELVAVGSTYYADSVKGRFTISRDNAKNTVYLQMNSLKPEDTALYYCNKPGNYLWRRSWDFYYWGQGTQVTVST	high polyreactivity
QVQLVESGGGLVLAGGSLRLSCAASGRTFGIYAMGWYRQAPGKEREIVAAISWSGTSTHYADSVKGRFTISRDNAKNTVYLQMNSLKPEDTAVYYCAAAKTGRGSGTTGFGYWGQGTQVTVSS	high polyreactivity
QVQLVESGGGLVQAGGSLRLSCAPSGSTFRFYAMGWYRQAPGKERELVAVISSAGSTNYADSVKGRFTISRDNAQNTVYLQMNSLKPEDTAVYYCAAYRRYSIYNYWGQGTQVTVSS	high polyreactivity
QVQLVDSGGGLVQAGGSLRLSCAASGRTFGIYAMGWYRQAPGKERELVAAIRWRDGSTYYADSVKGRFTISRDNAKNTVYLQMYSLKPEDNAVYYCAATSLVYVRGSYWKYGYWGQGTQVTVSS	high polyreactivity

Sequence	polyreactivity (PSR sort gate)
QVQLVESGGGLVQAGGSLLLSCAASGYIFWSNTMGWYRQAPGKERELVAAISQSTASTYYADSVKGRFTISRDNAKNTVYLQMNSLKPEDTAVYYCAAYYNFGDYEYDYWGQGTQVTVSS	low polyreactivity
QLQLVESGGGLVQAGGSLRLSCAASGGIFGYYTMGSYRQAPGKEREFVAAITSRGGSTYYADSVKGRFTISRDTAKNTVYLQMNSLKPEDTAVYYCAARRQRDRYGYWGQGTQVTVSS	high polyreactivity
QVQLVESGGGLVQAGGSRRLRCAASGSTFDVYAMGWYRQAPGKESELVAVINTSGTRTYYADSVKGRFTISRDNAKNTVYLQMNSLKPEDTAVYSCNAGGHLEMNYWGQGTQVTVSS	low polyreactivity
QVQLVESGGGLVQAGGRLRLSCAASGSTFDVYAMGWYRQAPGKERELVAVINTSGTRTYYADSVKGRFTISRDNAKNTVYLQRNSLKPEDTAVYYCNAGGHLEMNYWGQGTQVTVSS	low polyreactivity
QVQLEESGGGIVQAGRSLRLSCAASGITFDANTMGWYRQAPGKERELVAAITGGGSTNYADSVKGRFTISRDNAKNTVYLHMNSPKPEDTAVYYCPADLIYKYNYWGQGTQVTVSS	low polyreactivity
QVELVESGGGLVQAGGSLRLSCAASGSTFDPNAMGWYRQAPGKERELVASITSRGGSTYYADSVKGRFTISRDIAKNTVYLQMNSLKPEDTADYYCAAVGGATYSWNGYSWYPWHNYWGQGTQVTVSS	low polyreactivity
QVQLVESGGGLVQAGGSLRLTCAASGFIFNFYAMGWYRQAPGKERELVAAISRNGGSTYYADSVKGRFTISRDNAKNTVYLQMNSLKPEDTAVYYCNAGGSYGDFGYWGKGTQVTVSS	high polyreactivity
QVQLVESGGGLVQAGGSLRLSCAASGRTFLPNAMGWYRQAPGKERELVAVITSGGSTNYADSVKGRFTISRDNAKNTVYLQMNSLKQEDTAVYYCAARRWSSSQGHWGKSAGYGYWGQGTQVTVSS	low polyreactivity
QVQLVESGGGLVQAGGSLRISCASSGRTFWGNAKGRYRQAPGKERELVAGITKSGGTTYADSVKGRFTISRDNAKKTVYLQMNSLKPEDTAVYYCNAVRWQKGDYWGQGTQVTVSS	high polyreactivity
QVQLVESGGGLVQAGGSLSLSCAAYGITISIYSMGSYRQAPGKERELVAAINSGGTTYYADSVKGRFTISRDNAKNTVYLQMNSLKPEDTAVYYCADEYFAYPYEFYGGQGTQVTVSS	high polyreactivity
QVQLVESGGGLVQAGGSLRLSCAASGRIFRYNAMGWYRQAPGKERELVASINQRGGYTYYADSVKGRFTISRDNAKNTVYLQMNSLKPEDTAVYYCAADRPRGRETVYYWGQGTQVTVSS	high polyreactivity
QVQLVESGGGLVQGGGSLRLSCADSGSTFSSNAMGWYRQAPGKERELVAAITGSGGRTYYADSVKRRFTISRDNAKNTVYLQMNCLKPEDTAVYYCAKRYRGGYWGQGTQVTVSS	high polyreactivity
QVQLVESGGGLVQAGGSLRLSCAASGSTIPLYAMGWYRQAPGKERELVAAISRRGGRTYYADSVKGRFTISRDYAKNTVYLQMNSLKQEDTAVYYCATAQGSRVDYWGQGTQVTVSS	high polyreactivity
QVQLVESGGGLVQAGGSLRLSCAASGLTFYGNAMGWYRQAPGKETELVADISLSGGRTFYADSVKGRFTISRDNAKNTVYLQMNSLKPEDTAVYYCAKTYTSGYHRRYDYWGQGTQVTVSS	low polyreactivity
QVQLVESGGGLVQAGGSLRLSSAASGITFDVNVMGWYRQAPRKERELVAAIRRGDSTDYADSVKGRFSISRDNEKNTVYLQMKSLKPEDTAVYYCAADDSGYELRAYTWPYFGYDYWGQGTQVTVSS	low polyreactivity
QVQLVESGGGLVQAGGSLRLSCAASGRTFATYTMGWYRQAPGQERELVAAITRGGGSTFYADSVQGRFTITRDHAKNPVYLQMNSLKPEDTAVYYFAARIPGSFKSGYWGQGTQVTVSS	high polyreactivity
QVQLVESGGGLVQAGGSLRLICSASGSIIEHYAMGWYRQAPGKERELVAAISWCGASTYYADSVKGRFTISRDNAKNTVYLQWYSLKPEDTAVYYCAAVFYGGGKRYYYWGQGTQVTVSS	high polyreactivity
QVQLVESGGGLVQAGGSLRLSCAASGRIFPYYTMGWYREAPGKERELVATITTGGSTNYADSVKGRFTISRDNAENTVYLQMNSLKPEDTAVYYCNKDGVVEVRFTGRQEYDYWGQGTQVTVSS	low polyreactivity
QVQLVESGGGLVQAGGSLRLSCAASGGIFGYYVMGWYRQAAGNERELVAVITRGGSTNYADSVKGRFTISRDNAKNTVYLQMNSLKPEDTAVYYCAKDVPYRRVRSEYWGQGTQVTVSS	low polyreactivity
QDQLVESRVGLVQAGGSLRLSCAASGRIIPKYAMGWYRQAPGKERELVAAISSSGGSTYYADSVKGRFTISRDYAKNNVYLQMNSLNPEVTAVYYCNVDKATRYRYPGFDYWGQGTQVSVSS	high polyreactivity
QVHLVESGGGLVQAGGSLRLSCAASGRTFYSNAMGWYRQPPGKERELVAAINSGGDTYYADSVKGRFTISRDNAKNTVYLQMNSLTPEDTAVYYCADDYYWEMDSWGQGTQVTVSS	low polyreactivity
